B1: SH2 domain-containing protein 1A (Homo sapiens), O60880 (parent)
chain: MDAVAVYHGKISRETGEKLLLATGLDGSYLLRDSESVPGVYCLCVLYHGYIYTYRVSQTETGSWSAETAPGVHKRYFRKIKNLISAFQKPDQGIVIPLQYPVEKKSSARSTQGTTGIREDPDVCLKAP
B2: ATP synthase mitochondrial F1 complex assembly factor 2 (Homo sapiens), Q8N5M1 (parent)
chain: MWRSCLRLRDGGRRLLNRPAGGPSASMSPGPTIPSPARAYAPPTERKRFYQNVSITQGEGGFEINLDHRKLKTPQAKLFTVPSEALAIAVATEWDSQQDTIKYYTMHLTTLCNTSLDNPTQRNKDQLIRAAVKFLDTDTICYRVEEPETLVELQRNEWDPIIEWAEKRYGVEISSSTSIMGPSIPAKTREVLVSHLASYNTWALQGIEFVAAQLKSMVLTLGLIDLRLTVEQAVLLSRLEEEYQIQKWGNIEWAHDYELQELRARTAAGTLFIHLCSESTTVKHKLLKE
partner: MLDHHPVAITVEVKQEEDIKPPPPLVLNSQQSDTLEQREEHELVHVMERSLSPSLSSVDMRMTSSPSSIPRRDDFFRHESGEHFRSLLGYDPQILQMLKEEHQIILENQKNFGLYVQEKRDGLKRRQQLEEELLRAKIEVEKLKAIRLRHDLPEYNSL
B3: X-linked retinitis pigmentosa GTPase regulator (Homo sapiens), Q92834 (parent)
chain: MREPEELMPDSGAVFTFGKSKFAENNPGKFWFKNDVPVHLSCGDEHSAVVTGNNKLYMFGSNNWGQLGLGSKSAISKPTCVKALKPEKVKLAACGRNHTLVSTEGGNVYATGGNNEGQLGLGDTEERNTFHVISFFTSEHKIKQLSAGSNTSAALTEDGRLFMWGDNSEGQIGLKNVSNVCVPQQVTIGKPVSWISCGYYHSAFVTTDGELYVFGEPENGKLGLPNQLLGNHRTPQLVSEIPEKVIQVACGGEHTVVLTENAVYTFGLGQFGQLGLGTFLFETSEPKVIENIRDQTISYISCGENHTALITDIGLMYTFGDGRHGKLGLGLENFTNHFIPTLCSNFLRFIVKLVACGGCHMVVFAAPHRGVAKEIEFDEINDTCLSVATFLPYSSLTSGNVLQRTLSARMRRRERERSPDSFSMRRTLPPIEGTLGLSACFLPNSVFPRCSERNLQESVLSEQDLMQPEEPDYLLDEMTKEAEIDNSSTVESLGETTDILNMTHIMSLNSNEKSLKLSPVQKQKKQQTIGELTQDTALTENDDSDEYEEMSEMKEGKACKQHVSQGIFMTQPATTIEAFSDEEVGNDTGQVGPQADTDGEGLQKEVYRHENNNGVDQLDAKEIEKESDGGHSQKESEAEEIDSEKETKLAEIAGMKDLREREKSTKKMSPFFGNLPDRGMNTESEENKDFVKKRESCKQDVIFDSERESVEKPDSYMEGASESQQGIADGFQQPEAIEFSSGEKEDDEVETDQNIRYGRKLIEQGNEKETKPIISKSMAKYDFKCDRLSEIPEEKEGAEDSKGNGIEEQEVEANEENVKVHGGRKEKTEILSDDLTDKAEDHEFSKTEELKLEDVDEEINAENVESKKKTVGDDESVPTGYHSKTEGAERTNDDSSAETIEKKEKANLEERAICEYNENPKGYMLDDADSSSLEILENSETTPSKDMKKTKKIFLFKRVPSINQKIVKNNNEPLPEIKSIGDQIILKSDNKDADQNHMSQNHQNIPPTNTERRSKSCTIL
partner: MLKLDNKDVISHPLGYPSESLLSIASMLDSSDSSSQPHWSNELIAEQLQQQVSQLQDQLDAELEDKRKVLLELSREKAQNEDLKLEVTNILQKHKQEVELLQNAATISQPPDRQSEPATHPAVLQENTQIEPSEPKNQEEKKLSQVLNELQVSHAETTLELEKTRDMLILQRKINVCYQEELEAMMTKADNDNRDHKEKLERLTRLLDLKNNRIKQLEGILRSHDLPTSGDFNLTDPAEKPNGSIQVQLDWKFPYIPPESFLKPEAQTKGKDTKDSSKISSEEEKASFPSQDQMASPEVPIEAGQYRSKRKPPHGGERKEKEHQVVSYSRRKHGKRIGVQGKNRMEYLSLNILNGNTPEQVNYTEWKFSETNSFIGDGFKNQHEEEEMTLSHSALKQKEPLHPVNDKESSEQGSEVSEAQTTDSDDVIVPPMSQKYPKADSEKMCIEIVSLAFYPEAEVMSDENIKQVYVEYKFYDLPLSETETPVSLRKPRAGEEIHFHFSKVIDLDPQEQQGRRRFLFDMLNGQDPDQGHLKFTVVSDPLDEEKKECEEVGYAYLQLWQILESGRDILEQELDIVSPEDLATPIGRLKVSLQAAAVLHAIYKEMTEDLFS
B4: U4/U6 small nuclear ribonucleoprotein Prp31 (Homo sapiens), Q8WWY3 (parent)
chain: MSLADELLADLEEAAEEEEGGSYGEEEEEPAIEDVQEETQLDLSGDSVKTIAKLWDSKMFAEIMMKIEEYISKQAKASEVMGPVEAAPEYRVIVDANNLTVEIENELNIIHKFIRDKYSKRFPELESLVPNALDYIRTVKELGNSLDKCKNNENLQQILTNATIMVVSVTASTTQGQQLSEEELERLEEACDMALELNASKHRIYEYVESRMSFIAPNLSIIIGASTAAKIMGVAGGLTNLSKMPACNIMLLGAQRKTLSGFSSTSVLPHTGYIYHSDIVQSLPPDLRRKAARLVAAKCTLAARVDSFHESTEGKVGYELKDEIERKFDKWQEPPPVKQVKPLPAPLDGQRKKRGGRRYRKMKERLGLTEIRKQANRMSFGEIEEDAYQEDLGFSLGHLGKSGSGRVRQTQVNEATKARISKTLQRTLQKQSVVYGGKSTIRDRSSGTASSVAFTPLQGLEIVNPQAAEKKVAEANQKYFSSMAEFLKVKGEKSGLMST
partner: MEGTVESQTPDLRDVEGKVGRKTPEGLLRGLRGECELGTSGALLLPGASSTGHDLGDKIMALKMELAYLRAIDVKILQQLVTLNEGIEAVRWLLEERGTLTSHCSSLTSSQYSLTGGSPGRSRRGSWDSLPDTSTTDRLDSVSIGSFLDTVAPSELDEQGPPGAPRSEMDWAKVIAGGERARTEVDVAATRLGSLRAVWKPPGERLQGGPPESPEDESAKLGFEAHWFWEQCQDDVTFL
B5: Plakophilin-2 (Homo sapiens), Q99959-2 (parent)
chain: MAAPGAPAEYGYIRTVLGQQILGQLDSSSLALPSEAKLKLAGSSGRGGQTVKSLRIQEQVQQTLARKGRSSVGNGNLHRTSSVPEYVYNLHLVENDFVGGRSPVPKTYDMLKAGTTATYEGRWGRGTAQYSSQKSVEERSLRHPLRRLEISPDSSPERAHYTHSDYQYSQRSQAGHTLHHQESRRAALLVPPRYARSEIVGVSRAGTTSRQRHFDTYHRQYQHGSVSDTVFDSIPANPALLTYPRPGTSRSMGNLLEKENYLTAGLTVGQVRPLVPLQPVTQNRASRSSWHQSSFHSTRTLREAGPSVAVDSSGRRAHLTVGQAAAGGSGNLLTERSTFTDSQLGNADMEMTLERAVSMLEADHMLPSRISAAATFIQHECFQKSEARKRVNQLRGILKLLQLLKVQNEDVQRAVCGALRNLVFEDNDNKLEVAELNGVPRLLQVLKQTRDLETKKQITGLLWNLSSNDKLKNLMITEALLTLTENIIIPFSGWPEGDYPKANGLLDFDIFYNVTGCLRNMSSAGADGRKAMRRCDGLIDSLVHYVRGTIADYQPDDKATENCVCILHNLSYQLEAELPEKYSQNIYIQNRNIQTDNNKSIGCFGSRSRKVKEQYQDVPMPEEKSNPKGVEWLWHSIVIRMYLSLIAKSVRNYTQEASLGALQNLTAGSGPMPTSVAQTVVQKESGLQHTRKMLHVGDPSVKKTAISLLRNLSRNLSLQNEIAKETLPDLVSIIPDTVPSTDLLIETTASACYTLNNIIQNSYQNARDLLNTGGIQKIMAISAGDAYASNKASKAASVLLYSLWAHTELHHAYKKAQFKKTDFVNSRTAKAYHSLKD

Variants of: B1
Conditions: with TNK2, Q07912-2
Sequence of TNK2, Q07912-2 (Q07912 other isoform, or with tags, fused parts or gaps): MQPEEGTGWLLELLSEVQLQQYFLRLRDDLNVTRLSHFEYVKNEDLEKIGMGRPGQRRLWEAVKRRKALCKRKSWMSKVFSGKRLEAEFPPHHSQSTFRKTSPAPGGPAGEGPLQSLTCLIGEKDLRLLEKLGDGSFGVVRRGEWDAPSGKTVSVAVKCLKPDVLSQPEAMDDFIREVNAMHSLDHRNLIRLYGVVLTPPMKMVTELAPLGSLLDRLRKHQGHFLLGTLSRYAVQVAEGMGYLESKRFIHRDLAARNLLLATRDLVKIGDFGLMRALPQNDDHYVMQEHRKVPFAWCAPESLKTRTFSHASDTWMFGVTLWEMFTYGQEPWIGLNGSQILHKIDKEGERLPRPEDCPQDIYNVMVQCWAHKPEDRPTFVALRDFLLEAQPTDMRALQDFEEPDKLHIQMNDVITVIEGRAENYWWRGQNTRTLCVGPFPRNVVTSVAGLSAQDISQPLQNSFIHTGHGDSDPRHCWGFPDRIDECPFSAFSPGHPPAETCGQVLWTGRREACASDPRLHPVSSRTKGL
In the case of P101L, the “effect of a mutation on the interaction” value is reported as “with no effect”.
With R32T the “effect of a mutation on the interaction” value was “with no effect”.
For G93D, the “effect of a mutation on the interaction” value was “with no effect”.

Variants of: B2
Conditions: with FSBP
In the case of W94R, the “effect of a mutation on the interaction” value is reported as “disrupting interaction strength”.

Variants of: B3
Conditions: with RPGRIP1, Q96KN7-4
With Q184H the “effect of a mutation on the interaction” value was “with no effect”.
For T255I, the “effect of a mutation on the interaction” value was “disrupting interaction strength”.
For R425K, the “effect of a mutation on the interaction” value was “with no effect”.
With H98Q the “effect of a mutation on the interaction” value was “disrupting interaction strength”.
For G436D, the “effect of a mutation on the interaction” value was “with no effect”.

Variants of: B4
Conditions: with lura1_human LURAP1, Q96LR2
L107V was tested, and the “effect of a mutation on the interaction” value was “with no effect”.

Variants of: B5
Conditions: with MTUS2, Q5JR59-3
Sequence of MTUS2, Q5JR59-3 (Q5JR59 other isoform, or with tags, fused parts or gaps): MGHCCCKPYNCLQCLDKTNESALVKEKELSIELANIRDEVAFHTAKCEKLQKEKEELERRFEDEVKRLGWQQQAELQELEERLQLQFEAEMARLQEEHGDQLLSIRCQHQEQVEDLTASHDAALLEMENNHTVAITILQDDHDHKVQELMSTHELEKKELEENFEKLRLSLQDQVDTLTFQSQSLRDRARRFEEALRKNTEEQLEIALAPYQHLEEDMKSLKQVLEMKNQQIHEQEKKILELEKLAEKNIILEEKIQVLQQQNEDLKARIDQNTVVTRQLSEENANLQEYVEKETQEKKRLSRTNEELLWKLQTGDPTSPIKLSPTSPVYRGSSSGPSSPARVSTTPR
With S140F the “effect of a mutation on the interaction” value was “disrupting interaction strength”.
A264V was tested, and the “effect of a mutation on the interaction” value was “with no effect”.
S644P was tested, and the “effect of a mutation on the interaction” value was “disrupting interaction strength”.
